{
  "source": "patent US20060233785A1",
  "about": "“Immunointeractive molecules and uses thereof” (priority 2001, published 2006)",
  "molecules": {"B1": {"name": "rHev b 6: recombinant Hev b 6 (prohevein) expressed in E. coli from pPROEX-HTa with 6-His tag (protein)", "chain": "EQCGRQAGGKLCPNNLCCSQWGWCGSTDEYCSPDHNCQSNCKDSGEGVGGGSASNVLATYHLYNSQDHGWDLNAASAYCSTWDANKPYSWRSKYGWTAFCGPVGAHGQSSCGKCLSVTNTGTGAKTTVRIVDQCSNGGLDLDVNVFRQLDTDGKGYERGHITVNYQFVDCGDSFNPLFSVMKSSVIN", "modifications": "left off: small tags and cut ends", "notes": "recombinant Hev b 6 (prohevein) expressed in E. coli from pPROEX-HTa with 6-His tag"}, "B2": {"name": "mutant rHev b 6: rHev b 6 with cysteine to alanine substitution at amino acid 3 of the mature protein (protein)", "chain": "EQAGRQAGGKLCPNNLCCSQWGWCGSTDEYCSPDHNCQSNCKDSGEGVGGGSASNVLATYHLYNSQDHGWDLNAASAYCSTWDANKPYSWRSKYGWTAFCGPVGAHGQSSCGKCLSVTNTGTGAKTTVRIVDQCSNGGLDLDVNVFRQLDTDGKGYERGHITVNYQFVDCGDSFNPLFSVMKSSVIN", "modifications": "left off: small tags and cut ends", "notes": "rHev b 6 with cysteine to alanine substitution at amino acid 3 of the mature protein"}, "B3": {"name": "sulphonated rHev b 6: purified rHev b 6 sulphonated in sulphonation buffer to improve solubility (protein)", "chain": "EQCGRQAGGKLCPNNLCCSQWGWCGSTDEYCSPDHNCQSNCKDSGEGVGGGSASNVLATYHLYNSQDHGWDLNAASAYCSTWDANKPYSWRSKYGWTAFCGPVGAHGQSSCGKCLSVTNTGTGAKTTVRIVDQCSNGGLDLDVNVFRQLDTDGKGYERGHITVNYQFVDCGDSFNPLFSVMKSSVIN", "modifications": "left off: small tags and cut ends"}},
  "key": {"[1]": {"test_system": "Hev b 6-specific mAb 1A5.4", "assay": "ELISA for Hev b 6-specific mAb binding to rHev b 6 forms", "design": "species or system mouse", "description": "(§1) FIG. 6 is an image of sulphonation abolishing the IgE reactivity of rHev b 6. rHev b 6 (A) and sulphonated rHev b 6 (B) were resolved by 16% SDS-PAGE under non-reducing conditions. Gels were either stained with Coomassie Brilliant Blue (1) or transferred to nitrocellulose. Strips with transferred protein were incubated with the Hev b 6-specific mAb 1A5.4 and binding detected (2). Strips with transferred protein were also incubated with sera from two latex allergic, Hev b 6 sensitized subjects (3 and 4) and one non-latex-allergic, atopic subject (5). The presence or absence of IgE binding was then detected. […] Plates were coated with rHev b 6 and sulphonated rHev b 6 and the presence or absence of IgE-binding detected. As a positive control the Hev b 6-specific mAb 1A5 was used. NB indicates no binding of IgE was detected.\n(§2) FIG. 7 is a graphical representation of the disruption of the first disulphide bond of Hev b 6 markedly decreasing IgE binding to rHev b6. IgE from the sera of 31 latex allergic and 18 non-latex allergic subjects assayed by ELISA for the ability to bind rHev b 6 (no substitution) and mutant rHev b 6 (cysteine to alanine substitution at amino acid 3). Plates were coated with both rHev b 6 and mutant rHev b 6 and incubated with subjects' sera (A) Population ELISA. Individual dots represent individual readings. The thin horizontal lines indicated the cut-off for positive for IgE binding to mutant rHev b 6 and rHev b 6, calculated as the mean of the readings for non-latex allergic subjects for each antigen plus 2 SD. The thick horizontal lines indicate the mean of each group. (B) Direct comparison of IgE and mAb binding to rHev b 6 and mutant rHev b 6. A1 to 11, latex-allergic subjects. N1, non-latex allergic subject. Dotted line indicates the cut-off for positive for IgE binding for mutant rHev b 6. The solid line indicates the cut-off for positive for IgE binding for rHev b 6.\n(§3) Patient serum samples were tested for Hev b 6 specific IgE using our standard ELISA protocol (Sutherland et al. 2002, supra) with rabbit anti-human IgE (Dako, Denmark) at 1 in 1000 dilution followed by swine anti-rabbit IgG-HRP conjugate (Promega) at I in 1000 dilution. For the Hev b 6-specific mAb 1A5.4 (IgG1/kappa isotype) binding was detected using sheep anti-mouse Ig-HRP (Silenus) at 1 in 1000 dilution."}, "Hev b 6 specific IgE": {"test_system": "Hev b 6 specific IgE", "assay": "ELISA for Hev b 6 specific human IgE (Examples 8 and 9)", "format": "binding", "conditions": "for frequency of IgE reactivity in non-latex allergic subjects: 18 non-latex allergic subjects, compared with 6%; for latex allergic subjects positive for IgE binding by ELISA (positive/total) / latex allergic subjects positive for IgE binding by ELISA: 31 latex allergic subjects; for latex allergic subjects positive for IgE binding by ELISA: cut-off mean + 2 SD of non-latex allergic; for IgE binding by ELISA: sera of latex allergic, Hev b 6 sensitised subjects", "description": "as §1, §2, §3"}, "basophils": {"test_system": "basophils", "assay": "Basophil Activation Test", "format": "cell-based, human", "conditions": "for activated basophils / basophil activation above background / basophils activated (above background): 10 μg/ml; for basophil activation above background levels / basophil activation over background: latex allergic subjects; for basophil activation above background levels: 0.1 μg/ml (FIGS. 9B and C); for basophil activation over background: 1 μg/ml; for basophil activation: non-latex allergic control subject N2; for basophil activation above background: one subject (FIG. 9B); for basophils activated (above background): latex allergic subjects (FIGS. 9B, C and D)", "description": "FIG. 9 is a graphical representation of the basophil Activation Test on a latex allergic donor. Whole blood from a latex allergic, Hev b 6 sensitized subject was incubated with latex allergens. The cells were stained with FITC labelled anti-human IgE polyclonal antibodies and a PE labelled monoclonal anti-human CD63 antibody. Cells were analysed by flow cytometry defining basophils on the basis of scatter (A) and high IgE staining (B). The percentage of activated basophils expressing CD63 was determined (C).\nThe Basophil Activation Test was performed on whole blood from (A) non-latex allergic subject N2; (B) latex-allergic subject A7; (C) latex-allergic subject A8 and (D) latex-allergic subject A10. Antigens: latex glove extract (GE), hevein peptide (hevein), rHev b 6, mutant rHev b 6 (MU rHev b 6), sulphonated rHev b 6, (sul. rHev b 6), rHev b 5, KLH and house dust mite extract (HDM). All allergens were used at 10 μg/ml except for rHev b 6 and mutant rHev b 6 which were used at 0.1, 1 and 10 μg/ml. The cut-off for positive was set at the level of activated basophils after incubation in stimulation buffer alone (no antigen, horizontal line). A plus symbol (+) indicates antigen to which a subject has either a positive clinical history of allergy and/or a positive reading on an allergen-specific IgE ELISA.\nA basophil activation assay based on flow cytometry was used to quantify the activation of basophils after incubation with various allergens. This assay was modified from Paris-Kohler A, Demoly P, Persi L, Lebel B, Bousquet J, Arnoux B. In vitro diagnosis of cypress pollen allergy by using cytofluorimetric analysis of basophils (Basotest). J Allergy Clin Immunol 2000; 105:339-45. Whole blood was collected in 6 ml heparinised vacutainers (Greiner). 100 μl aliquots were preincubated with stimulation buffer (20 mM Hepes, 133 mM NaCl, 5 mM KCl, 7 mM CaCl2, 3.5 mM MgCl2, 1 mg/ml BSA, 20 μl/ml heparin, pH 7.4) containing 2 ng/ml IL-3, for 10 min at 37° C., to increase the sensitivity of the assay. Samples were incubated for 20 min at 37° C. with 100 μl of stimulation buffer alone or stimulation buffer containing either rabbit anti-human IgE (Dako) at 1 in 500 dilution, 2 μM N-fMLP (Sigma, Mo, USA), crude allergen extracts, recombinant latex allergens or Keyhole Limpet Haemocyanin (KLH) (Sigma, Mo, USA). Basophil activation was stopped by incubating at 4° C. for 5 min. Normal goat serum (10 μl) was added to each tube to block non-specific binding of the detection antibody (goat anti-human IgE-FITC) and incubated for 10 min at 4° C. Samples were incubated with goat anti-human IgE-FITC (Caltag, Birmingham, Calif.) at a dilution of 1 in 2.5, and mouse anti-human CD63-R-Phycoerythrin (PE; Caltag, Birmingham, Calif.) at a dilution of 1 in 20, in a 20 μl volume of wash buffer (20 mM HEPES, 133 mM NaCl, 5 mM KCl, 0.27 mM EDTA, pH7.3). RBC were lysed by the addition of 2 ml FACS lysing solution (39 mM NH4Cl, 2.5 mM KHCO3, 0.2 mM EDTA) and incubation for 10 min at room temperature. Cells were centrifuged (250 g, 5 min at 4° C.), resuspended in 3 ml wash buffer, and centrifuged as before. Pellets were resuspended in 200 μl wash buffer, and analysed by flow cytometry (FACScalibur, Becton Dickinson) within 2 h of the experiment. 7AAD (Sigma, Mo, USA) was added to the samples 5 min prior to FACS analysis."}},
  "note": "Entries after “also recorded” stand apart in the source; their conditions may differ. Like-named read-outs stand apart in the source and are kept apart here.",
  "data": [
    {"molecule": "B1", "values": [
      {"measurement": "Hev b 6-specific mAb binding by ELISA", "setting": "[1]", "result": "bound to a similar extent"},
      {"measurement": "Hev b 6-specific mAb binding by ELISA", "setting": "[1]; listed as rHevb 6", "result": "comparable reactivity"},
      {"measurement": "frequency of IgE reactivity in non-latex allergic subjects", "setting": "Hev b 6 specific IgE", "result": "same frequency"},
      {"measurement": "latex allergic subjects positive for IgE binding by ELISA (positive/total)", "setting": "Hev b 6 specific IgE", "result": "21/31"},
      {"measurement": "latex allergic subjects positive for IgE binding by ELISA", "setting": "Hev b 6 specific IgE", "result": 68, "unit": "%"},
      {"measurement": "IgE binding by ELISA", "setting": "Hev b 6 specific IgE", "result": "bound"},
      {"measurement": "activated basophils", "setting": "basophils; another patient (FIG. 9C)", "result": 60, "unit": "%"},
      {"measurement": "basophil activation above background levels", "setting": "basophils", "result": "30-50%"},
      {"measurement": "basophil activation over background", "setting": "basophils", "result": "50-60%"},
      {"measurement": "basophil activation", "setting": "basophils", "result": "negligible"},
      {"measurement": "basophil activation above background", "setting": "basophils", "result": 60, "unit": "%"},
      {"measurement": "activated basophils", "setting": "basophils; third patient", "result": 70, "unit": "%"}
    ]},
    {"molecule": "B2", "values": [
      {"measurement": "Hev b 6-specific mAb binding by ELISA", "setting": "[1]", "result": "comparable reactivity"},
      {"measurement": "frequency of IgE reactivity in non-latex allergic subjects", "setting": "Hev b 6 specific IgE", "result": "same frequency"},
      {"measurement": "latex allergic subjects positive for IgE binding by ELISA (positive/total)", "setting": "Hev b 6 specific IgE", "result": "2/31"},
      {"measurement": "latex allergic subjects positive for IgE binding by ELISA", "setting": "Hev b 6 specific IgE", "result": 6, "unit": "%"},
      {"measurement": "activated basophils", "setting": "basophils; another patient (FIG. 9C)", "result": 40, "unit": "%"},
      {"measurement": "basophils activated (above background)", "setting": "basophils", "result": "up to 49%"},
      {"measurement": "basophil activation above background levels", "setting": "basophils", "result": "no activation above background levels"},
      {"measurement": "basophil activation over background", "setting": "basophils", "result": "5-10%"},
      {"measurement": "basophil activation", "setting": "basophils", "result": "negligible"},
      {"measurement": "basophil activation above background", "setting": "basophils", "result": 15, "unit": "%"},
      {"measurement": "activated basophils", "setting": "basophils; third patient", "result": "no activation"}
    ]},
    {"molecule": "B3", "values": [
      {"measurement": "Hev b 6-specific mAb binding by ELISA", "setting": "[1]", "result": "bound to a similar extent"},
      {"measurement": "IgE binding by ELISA", "setting": "Hev b 6 specific IgE", "result": "no detectable binding; also recorded: lack of reactivity"},
      {"measurement": "basophils activated (above background)", "setting": "basophils", "result": "less than 5%"}
    ]}
  ]
}
